Experimental findings from article PMC6395711, “MdGSTF6, activated by MdMYB1, plays an essential role in anthocyanin accumulation in apple” are described below.

This data set deals with T1, MdMYB1 (Malus domestica? (apple), UniProt A0SQ37 1-243).
T1 sequence: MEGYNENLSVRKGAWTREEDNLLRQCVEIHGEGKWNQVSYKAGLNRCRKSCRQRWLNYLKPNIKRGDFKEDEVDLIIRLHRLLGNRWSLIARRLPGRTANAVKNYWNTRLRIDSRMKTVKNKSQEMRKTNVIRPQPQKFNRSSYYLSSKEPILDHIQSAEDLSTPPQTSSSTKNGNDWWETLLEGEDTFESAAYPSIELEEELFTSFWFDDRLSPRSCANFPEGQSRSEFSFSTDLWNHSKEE
In words: EMSA; LightShift Chemiluminescent EMSA Kit (Thermo); buffer, salt, pH and temperature not stated. As to conditions: protein: recombinant; tags: pET-32a fusion, His (Ni-agarose purified); blunt. In general terms: Mobility shift assays separate free from complexed probe on a gel.

B1: MdGSTF6-probe (dsDNA)
DNA 1: ATATCTAGTTGTAATCAACTGTTATGGCATAAATTG
DNA 2: CAATTTATGCCATAACAGTTGATTACAACTAGATAT
Turning to B1, the binding result was “binds”.
